Experiment [1] deals with human OGF receptor (OGFr), native, in nuclear preparations of human cells and tissues (human) (UniProt Q9NZT2). Nature of the experiment: competition with [3H]-[Met5]-enkephalin, PANC-1 nuclear homogenates; IC50/Kd.
Experiment [2] deals with T1, human OGF receptor (OGFr), native, in nuclear preparations of human cells and tissues (human, UniProt Q9NZT2 1-662, limits assumed).
T1 construct: Native receptor in nuclear homogenates (placenta, PANC-1, MIA PaCa-2, Capan-1, BxPC-3, pancreatic tissue, head and neck tissue); also called zeta opioid receptor; receptor for OGF
T1 chain: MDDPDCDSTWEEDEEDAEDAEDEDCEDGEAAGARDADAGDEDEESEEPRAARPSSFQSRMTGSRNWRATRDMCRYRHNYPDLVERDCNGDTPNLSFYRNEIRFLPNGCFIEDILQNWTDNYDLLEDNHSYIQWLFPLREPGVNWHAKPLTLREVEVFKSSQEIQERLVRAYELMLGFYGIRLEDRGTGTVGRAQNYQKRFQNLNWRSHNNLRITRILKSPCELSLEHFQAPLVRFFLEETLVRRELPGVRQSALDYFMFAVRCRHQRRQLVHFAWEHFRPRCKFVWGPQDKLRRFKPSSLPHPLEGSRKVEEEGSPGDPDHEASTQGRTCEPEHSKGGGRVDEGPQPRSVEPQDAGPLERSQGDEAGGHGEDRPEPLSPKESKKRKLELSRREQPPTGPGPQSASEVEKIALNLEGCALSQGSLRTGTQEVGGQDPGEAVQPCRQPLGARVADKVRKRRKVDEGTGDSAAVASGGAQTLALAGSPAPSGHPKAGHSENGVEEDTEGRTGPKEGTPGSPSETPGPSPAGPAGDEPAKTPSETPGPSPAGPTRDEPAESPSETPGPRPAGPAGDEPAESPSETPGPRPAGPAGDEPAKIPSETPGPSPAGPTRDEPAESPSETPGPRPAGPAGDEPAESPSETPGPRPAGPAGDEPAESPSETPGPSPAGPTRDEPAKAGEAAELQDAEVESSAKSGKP
Nature of the experiment: radioligand saturation binding, nuclear-enriched fraction of human placenta.

Experiment [3] concerns the target T2, 12-GST fusion protein (GST fused to rat OGFr, all 580 amino acids, from clone #12) (rat, UniProt Q9QXY4 1-580).
T2 construct: The order GST then OGFr follows the pGEX-3X vector; also called purified fusion protein from the rat OGFr cDNA clone #12; not shown: glutathione-S-transferase (GST) of the pGEX-3X expression vector
T2 sequence: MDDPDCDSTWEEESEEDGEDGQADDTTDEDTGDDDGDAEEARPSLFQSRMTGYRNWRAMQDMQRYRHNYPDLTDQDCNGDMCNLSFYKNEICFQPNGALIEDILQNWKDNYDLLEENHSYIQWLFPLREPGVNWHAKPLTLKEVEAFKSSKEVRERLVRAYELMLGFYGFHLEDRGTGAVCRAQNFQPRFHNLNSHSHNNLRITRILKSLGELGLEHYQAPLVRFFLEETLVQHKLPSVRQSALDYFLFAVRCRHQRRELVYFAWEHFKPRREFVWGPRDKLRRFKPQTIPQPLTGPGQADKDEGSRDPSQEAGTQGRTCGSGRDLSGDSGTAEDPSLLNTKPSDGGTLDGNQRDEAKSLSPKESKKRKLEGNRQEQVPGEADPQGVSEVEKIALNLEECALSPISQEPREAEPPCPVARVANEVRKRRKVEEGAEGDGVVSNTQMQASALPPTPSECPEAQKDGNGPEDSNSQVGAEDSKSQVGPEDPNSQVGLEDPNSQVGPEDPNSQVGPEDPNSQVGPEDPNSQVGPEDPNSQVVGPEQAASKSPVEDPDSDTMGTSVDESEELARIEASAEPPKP
In words: [3H]-[Met5]-enkephalin saturation binding, filter assay, purified 12-GST fusion protein, 22 C. On the procedure: Fusion proteins (80-120 ng/tube) were incubated for 30 min with shaking at 22° C. Non-specific binding was measured in the presence of unlabeled [Met⁵]-enkephalin. In some assays, NTX (10⁻³ M) was added to the reaction mixture to monitor opioid antagonist blockade of binding. Binding was terminated by filtering homogenates through Whatman GF/B filters. Saturation isotherms were plotted using GraphPad Prism software (GraphPad Software Inc., San Diego, Calif.).

Experiment [4] addresses T1, human OGF receptor (OGFr), native, in …. Nature of the experiment: competition with [3H]-[Met5]-enkephalin, PANC-1 nuclear homogenates; IC50/Kd. On the procedure:
Each concentration was run in triplicate and every compound was tested twice.
Competition experiments using 1 or 2 nM [³H]

Ends that are not written are not given here.

As usually defined, the IC50 is the concentration needed to halve the response being measured. A higher IC50 goes with lower potency. As to “[D-Ala^2, N-Me-Phe^4, Gly^5-ol]-enkephalin (peptide)”, the IC50 in experiment [1] is greater than 100 µM. Same read-out and setting: then [D-Pen^2, Pen^5]-enkephalin (peptide), with greater than 100 µM; and ICI-174, 568 (peptide), with greater than 100 µM.

B1: [Met^5]-enkephalin (opioid growth factor) (peptide, UniProt P01210 100-104, looked up)
peptide: YGGFM
modifications: also: [3H] label on radioligand form
notes: domain: [Met^5]-enkephalin; only the pentapeptide stood in the assay; also called OGF; [^3H]-[Met^5]-enkephalin
As usually defined, the Kd is the free concentration of one partner at which half of the binding sites on the other are occupied at equilibrium, for simple one-to-one binding. Low values mean higher affinity, high ones lower affinity. With B1, the dissociation constant (Kd) was 12.3 nM in experiment [2] and 2.8 nM in experiment [3].

B2: Leucine enkephalin (peptide, UniProt P01210 230-234, looked up)
peptide: YGGFL
notes: domain: Leucine enkephalin
As for B2, the IC50 in experiment [4] was greater than 100 µM.

B3: dynorphin A1-8 (peptide, UniProt P01213 207-214, looked up)
peptide: YGGFLRRI
notes: domain: Dynorphin A1-8; 1-8 counts on dynorphin A, not on the precursor
B3 yielded a concentration for half-maximal inhibition (IC50) in experiment [4] greater than 100 µM.
